Data from US20210246166A1 (Bayer, published 2021).
Bridge positions count the residues as written; N and C are the ends. Square brackets hold non-standard residues; d marks the D form. Ends that are not written are not given here. * marks the point of attachment. X5 = Tetrahydropyranyl‑4‑acetic acid, O=C(CC1CCOCC1)*; Pro(trans-4-F) = O=C(O)[C@@H]1C[C@@H](F)CN1; Oic = O=C(O)[C@@H]1C[C@@H]2CCCC[C@@H]2N1; Morpholine(3S-CO) = O=C(O)[C@@H]1COCCN1; Butanoyl(3,3-Me2) = CC(C)(C)CC(=O)*; Cyclopropanecarbonyl = O=C(C1CC1)*; Hyp = O=C(O)[C@@H]1C[C@@H](O)CN1; NMeI = CC[C@H](C)[C@H](NC)C(=O)O; aIle = CC[C@@H](C)[C@H](N)C(=O)O; tBuAla = CC(C)(C)C[C@H](N)C(=O)O; Pen = CC(C)(S)[C@H](N)C(=O)O; Isovaleryl = CC(C)CC(=O)*; NMeC = CN[C@@H](CS)C(=O)O; Me2Gly = CN(C)CC(=O)*; Sar = CNCC(=O)O

T1: recombinant human MASP1 active protease (amino acids 297-699, C-terminal His Tag) (human, UniProt P48740 297-699)
T1 sequence: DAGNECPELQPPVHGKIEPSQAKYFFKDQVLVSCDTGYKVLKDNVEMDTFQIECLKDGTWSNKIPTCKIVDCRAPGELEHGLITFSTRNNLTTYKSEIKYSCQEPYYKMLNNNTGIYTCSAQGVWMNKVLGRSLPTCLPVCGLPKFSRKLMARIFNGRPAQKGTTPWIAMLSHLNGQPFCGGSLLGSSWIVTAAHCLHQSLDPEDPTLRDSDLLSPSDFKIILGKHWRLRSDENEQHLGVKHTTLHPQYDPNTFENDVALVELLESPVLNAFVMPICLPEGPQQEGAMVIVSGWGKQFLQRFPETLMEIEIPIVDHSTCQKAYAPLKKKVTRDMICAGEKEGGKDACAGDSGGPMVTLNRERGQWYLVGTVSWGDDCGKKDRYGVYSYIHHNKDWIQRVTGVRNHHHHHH

B1: Example 339: ((N-Me)G)-IC+SRSLPPIC+IPE-OH (peptide)
peptide: [Sar]ICSRSLPPICIPE-OH
modifications: disulfide 3-11; N-terminus assumed
SMILES: CC[C@H](C)[C@H](NC(=O)CNC)C(=O)N[C@H]1CSSC[C@@H](C(=O)N[C@H](C(=O)N2CCC[C@H]2C(=O)N[C@@H](CCC(=O)O)C(=O)O)[C@@H](C)CC)NC(=O)[C@H]([C@@H](C)CC)NC(=O)[C@@H]2CCCN2C(=O)[C@@H]2CCCN2C(=O)[C@H](CC(C)C)NC(=O)[C@H](CO)NC(=O)[C@H](CCCNC(=N)N)NC(=O)[C@H](CO)NC1=O
B2: Example 355: AIC+SRSLP-((3S-OH)P)-IC+IPD-NH2 (peptide)
peptide: AICSRSLP[(3S-OH)P]ICIPD-NH2
modifications: disulfide 3-11
B3: Example 345: IC+SRS-((tBu)A)-PPI-(Pen)+I-NH2 (peptide)
peptide: ICSRS[tBuAla]PPI[Pen]I-NH2
modifications: disulfide 2-10; N-terminus assumed
SMILES: CC[C@H](C)[C@H](N)C(=O)N[C@H]1CSSC(C)(C)[C@@H](C(=O)N[C@H](C(N)=O)[C@@H](C)CC)NC(=O)[C@H]([C@@H](C)CC)NC(=O)[C@@H]2CCCN2C(=O)[C@@H]2CCCN2C(=O)[C@H](CC(C)(C)C)NC(=O)[C@H](CO)NC(=O)[C@H](CCCNC(=N)N)NC(=O)[C@H](CO)NC1=O
B4: Example 350: ((N,N-diMe)G)-IC+SRSLPPIC+IPD-NH2 (peptide)
peptide: [Me2Gly]ICSRSLPPICIPD-NH2
modifications: disulfide 3-11
SMILES: CC[C@H](C)[C@H](NC(=O)CN(C)C)C(=O)N[C@H]1CSSC[C@@H](C(=O)N[C@H](C(=O)N2CCC[C@H]2C(=O)N[C@@H](CC(=O)O)C(N)=O)[C@@H](C)CC)NC(=O)[C@H]([C@@H](C)CC)NC(=O)[C@@H]2CCCN2C(=O)[C@@H]2CCCN2C(=O)[C@H](CC(C)C)NC(=O)[C@H](CO)NC(=O)[C@H](CCCNC(=N)N)NC(=O)[C@H](CO)NC1=O
B5: Example 352: (D-(+)Biotin)-(Ahx)-AIC+SRS-((tBu)A)-PPI-(Pen)+IPD-OH (peptide)
peptide: XXAICSRS[tBuAla]PPI[Pen]IPD-OH
modifications: disulfide 5-13; not fully specified (N-terminus); printed as (D-(+)Biotin)-(Ahx)-AIC + SRS-((tBu)A)-PPI-(Pen) + IPD-OH
B6: Example 353: (Cyclopropanecarboxylic)-IC+SRS-((tBu)A)-PPI-((N-Me)C)+I-NH2 (peptide)
peptide: Cyclopropanecarbonyl-ICSRS[tBuAla]PPI[NMeC]I-NH2
modifications: disulfide 2-10
SMILES: CC[C@H](C)[C@H](NC(=O)[C@@H]1CSSC[C@H](NC(=O)[C@@H](NC(=O)C2CC2)[C@@H](C)CC)C(=O)N[C@@H](CO)C(=O)N[C@@H](CCCNC(=N)N)C(=O)N[C@@H](CO)C(=O)N[C@@H](CC(C)(C)C)C(=O)N2CCC[C@H]2C(=O)N2CCC[C@H]2C(=O)N[C@@H]([C@@H](C)CC)C(=O)N1C)C(N)=O
B7: Example 358: (Isovaleric)-IC+SRS-((tBu)A)-PPI-((N-Me)C)+I-NH2 (peptide)
peptide: Isovaleryl-ICSRS[tBuAla]PPI[NMeC]I-NH2
modifications: disulfide 2-10
SMILES: CC[C@H](C)[C@H](NC(=O)[C@@H]1CSSC[C@H](NC(=O)[C@@H](NC(=O)CC(C)C)[C@@H](C)CC)C(=O)N[C@@H](CO)C(=O)N[C@@H](CCCNC(=N)N)C(=O)N[C@@H](CO)C(=O)N[C@@H](CC(C)(C)C)C(=O)N2CCC[C@H]2C(=O)N2CCC[C@H]2C(=O)N[C@@H]([C@@H](C)CC)C(=O)N1C)C(N)=O
B8: Example 354: ((N-Me)G)-IC+SRSL-((trans-4-Fluoro)P)-PIC+IPD-OH (peptide)
peptide: [Sar]ICSRSL[Pro(trans-4-F)]PICIPD-OH
modifications: disulfide 3-11; N-terminus assumed
SMILES: CC[C@H](C)[C@H](NC(=O)CNC)C(=O)N[C@H]1CSSC[C@@H](C(=O)N[C@H](C(=O)N2CCC[C@H]2C(=O)N[C@@H](CC(=O)O)C(=O)O)[C@@H](C)CC)NC(=O)[C@H]([C@@H](C)CC)NC(=O)[C@@H]2CCCN2C(=O)[C@@H]2C[C@@H](F)CN2C(=O)[C@H](CC(C)C)NC(=O)[C@H](CO)NC(=O)[C@H](CCCNC(=N)N)NC(=O)[C@H](CO)NC1=O
B9: Example 357: GIC+SRSL-(Morpholine-3-carboxylic)-PIC+IPD-OH (peptide)
peptide: GICSRSL[Morpholine(3S-CO)]PICIPD-OH
modifications: disulfide 3-11
B10: Example 348: GIC+SRSLPPIC+I-(Hyp)-D-OH (peptide)
peptide: GICSRSLPPICI[Hyp]D-OH
modifications: disulfide 3-11; N-terminus assumed
SMILES: CC[C@H](C)[C@H](NC(=O)CN)C(=O)N[C@H]1CSSC[C@@H](C(=O)N[C@H](C(=O)N2C[C@H](O)C[C@H]2C(=O)N[C@@H](CC(=O)O)C(=O)O)[C@@H](C)CC)NC(=O)[C@H]([C@@H](C)CC)NC(=O)[C@@H]2CCCN2C(=O)[C@@H]2CCCN2C(=O)[C@H](CC(C)C)NC(=O)[C@H](CO)NC(=O)[C@H](CCCNC(=N)N)NC(=O)[C@H](CO)NC1=O
B11: Example 346: AIC+SRSLPP-(allo-I)-C+IPD-NH2 (peptide)
peptide: AICSRSLPP[aIle]CIPD-NH2
modifications: disulfide 3-11; N-terminus assumed
SMILES: CC[C@@H](C)[C@@H]1NC(=O)[C@@H]2CCCN2C(=O)[C@@H]2CCCN2C(=O)[C@H](CC(C)C)NC(=O)[C@H](CO)NC(=O)[C@H](CCCNC(=N)N)NC(=O)[C@H](CO)NC(=O)[C@@H](NC(=O)[C@@H](NC(=O)[C@H](C)N)[C@@H](C)CC)CSSC[C@@H](C(=O)N[C@H](C(=O)N2CCC[C@H]2C(=O)N[C@@H](CC(=O)O)C(N)=O)[C@@H](C)CC)NC1=O
B12: Example 341: IC+SRSLP-(Oic)-I-(Pen)+I-NH2 (peptide)
peptide: ICSRSLP[Oic]I[Pen]I-NH2
modifications: disulfide 2-10; N-terminus assumed
SMILES: CC[C@H](C)[C@H](N)C(=O)N[C@H]1CSSC(C)(C)[C@@H](C(=O)N[C@H](C(N)=O)[C@@H](C)CC)NC(=O)[C@H]([C@@H](C)CC)NC(=O)[C@@H]2C[C@@H]3CCCC[C@@H]3N2C(=O)[C@@H]2CCCN2C(=O)[C@H](CC(C)C)NC(=O)[C@H](CO)NC(=O)[C@H](CCCNC(=N)N)NC(=O)[C@H](CO)NC1=O
B13: Example 344: AIC+SRS-(2-Amino-7-(tert-butoxy)-7-oxoheptanoic acid)-PPI-(Pen)+IPD-NH2 (peptide)
peptide: AICSRS[2‑Amino‑7‑(tert-butoxy)‑7‑oxoheptanoic acid]PPI[Pen]IPD-NH2
modifications: disulfide 3-11
B14: Example 340: ((N-Me)G)-((N-Me)I)-C+SRSLPPIC+IPD-NH2 (peptide)
peptide: [Sar][NMeI]CSRSLPPICIPD-NH2
modifications: disulfide 3-11; N-terminus assumed
SMILES: CC[C@H](C)[C@@H]1NC(=O)[C@@H]2CCCN2C(=O)[C@@H]2CCCN2C(=O)[C@H](CC(C)C)NC(=O)[C@H](CO)NC(=O)[C@H](CCCNC(=N)N)NC(=O)[C@H](CO)NC(=O)[C@@H](NC(=O)[C@H]([C@@H](C)CC)N(C)C(=O)CNC)CSSC[C@@H](C(=O)N[C@H](C(=O)N2CCC[C@H]2C(=O)N[C@@H](CC(=O)O)C(N)=O)[C@@H](C)CC)NC1=O
B15: Example 349: ((N-Me)G)-IC+SRSLP-(Oic)-IC+IPD-OH (peptide)
peptide: [Sar]ICSRSLP[Oic]ICIPD-OH
modifications: disulfide 3-11; N-terminus assumed
SMILES: CC[C@H](C)[C@H](NC(=O)CNC)C(=O)N[C@H]1CSSC[C@@H](C(=O)N[C@H](C(=O)N2CCC[C@H]2C(=O)N[C@@H](CC(=O)O)C(=O)O)[C@@H](C)CC)NC(=O)[C@H]([C@@H](C)CC)NC(=O)[C@@H]2C[C@@H]3CCCC[C@@H]3N2C(=O)[C@@H]2CCCN2C(=O)[C@H](CC(C)C)NC(=O)[C@H](CO)NC(=O)[C@H](CCCNC(=N)N)NC(=O)[C@H](CO)NC1=O
B16: Example 359: (tert-Butylacetic acid)-IC+SRS-((tBu)A)-PPI-(Pen)+IP-NH2 (peptide)
peptide: {Butanoyl(3,3-Me2)}-ICSRS[tBuAla]PPI[Pen]IP-NH2
modifications: disulfide 2-10
SMILES: CC[C@H](C)[C@H](NC(=O)CC(C)(C)C)C(=O)N[C@H]1CSSC(C)(C)[C@@H](C(=O)N[C@H](C(=O)N2CCC[C@H]2C(N)=O)[C@@H](C)CC)NC(=O)[C@H]([C@@H](C)CC)NC(=O)[C@@H]2CCCN2C(=O)[C@@H]2CCCN2C(=O)[C@H](CC(C)(C)C)NC(=O)[C@H](CO)NC(=O)[C@H](CCCNC(=N)N)NC(=O)[C@H](CO)NC1=O
B17: Example 342: (Tetrahydropyranyl-4-acetic acid)-IC+SRS-((tBu)A)-PPIC+IPD-NH2 (peptide)
peptide: X5-ICSRS[tBuAla]PPICIPD-NH2
modifications: disulfide 2-10
SMILES: CC[C@H](C)[C@H](NC(=O)CC1CCOCC1)C(=O)N[C@H]1CSSC[C@@H](C(=O)N[C@H](C(=O)N2CCC[C@H]2C(=O)N[C@@H](CC(=O)O)C(N)=O)[C@@H](C)CC)NC(=O)[C@H]([C@@H](C)CC)NC(=O)[C@@H]2CCCN2C(=O)[C@@H]2CCCN2C(=O)[C@H](CC(C)(C)C)NC(=O)[C@H](CO)NC(=O)[C@H](CCCNC(=N)N)NC(=O)[C@H](CO)NC1=O

Each binder was assayed against recombinant human MASP2 active protease (amino acids 297-686, C-terminal His Tag) (human, UniProt O00187 297-686) (assay: cell-based or functional assay).
recombinant human MASP2 active protease (amino acids 297-686, C-terminal His Tag), sequence (O00187 other isoform, or with tags, fused parts or gaps limits assumed): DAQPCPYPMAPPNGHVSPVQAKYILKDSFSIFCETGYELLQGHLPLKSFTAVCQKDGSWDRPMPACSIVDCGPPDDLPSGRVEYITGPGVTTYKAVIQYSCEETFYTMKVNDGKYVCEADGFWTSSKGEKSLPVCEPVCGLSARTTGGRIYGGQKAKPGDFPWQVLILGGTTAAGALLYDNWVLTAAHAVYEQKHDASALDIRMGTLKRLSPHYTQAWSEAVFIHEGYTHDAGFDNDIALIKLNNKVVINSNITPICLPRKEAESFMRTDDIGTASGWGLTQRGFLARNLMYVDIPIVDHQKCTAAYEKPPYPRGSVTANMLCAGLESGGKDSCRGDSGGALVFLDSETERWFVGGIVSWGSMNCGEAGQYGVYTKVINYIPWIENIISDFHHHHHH

Binder | human MASP2 IC50
B1 | 640 nM
B2 | 930 nM
B3 | 390 nM
B4 | 370 nM
B5 | 71 nM
B6 | 50 nM
B7 | 19 nM
B8 | 510 nM
B9 | 1300 nM
B10 | 690 nM
B11 | 190 nM
B12 | 430 nM
B13 | 51 nM
B14 | 300 nM
B15 | 420 nM
B16 | 34 nM
B17 | 17 nM

What follows are binders tested against T1, recombinant human MASP1 active protease … (assay: cell-based or functional assay).

Binder | human MASP1 IC50
B1 | 26 nM
B2 | 29 nM
B3 | 27 nM
B4 | 28 nM
B5 | 28 nM
B6 | 28 nM
B7 | 31 nM
B8 | 29 nM
B9 | 31 nM
B10 | 28 nM
B11 | 27 nM
B12 | 26 nM
B13 | 27 nM
B14 | 26 nM
B15 | 9.6 nM
B16 | 31 nM
B17 | 26 nM
